Data published in patent publication US20200230173A1 (US Dept. of Health and Human Services, published 2020).

Target: T1, human TNFR2-Fc fusion protein (human, UniProt P20333 23-257)
T1 construct: not shown: Fc part
T1 sequence (looked up): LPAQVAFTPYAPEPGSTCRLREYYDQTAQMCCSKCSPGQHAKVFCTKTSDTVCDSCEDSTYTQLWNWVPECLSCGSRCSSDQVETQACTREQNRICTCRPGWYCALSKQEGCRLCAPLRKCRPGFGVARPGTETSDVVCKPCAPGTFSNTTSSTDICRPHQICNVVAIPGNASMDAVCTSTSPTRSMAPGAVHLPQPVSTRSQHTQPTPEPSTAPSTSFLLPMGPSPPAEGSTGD
Assay: selection from a phage display scFv library on human TNFR2-Fc

B1: human TNFR2-specific monoclonal antibody E4 (antibody, V domains shown)
VH: QITLKESGPTLVKPTQTLTLTCTFSGFSLTTSGVGVGWIRQPPGKALEWLALIYWDDDKRYSPSLKSRLTITKDTSKNQVVLTMTNMDPVDTATYYCAHLDGSGSLDYWGQGTLVTVSS
VL: QSVLTQPPSASGTPGQRVTISCSGSTSNIGRNSVNWYSHLPGAAPKLLISGNDQRPSGVPDRFSGSKSDNTASLTVSGLQAEDEAHYYCSSSAANLGVFGGGTKLTVLG
binding result: binds
